Tests used:
[1] = system: Human Chronic Myelogenous Leukemia K562 Cells; assay: Lethal effect of rLZ-8 on K562 cells (MTT, OD570nm); assay type: cell-based
Method: After sterilization of rLZ-8, we prepared 6 concentrations using IMDM culture medium, which are respectively 3.125 μg·ml^−1, 6.25 μb·ml^−1, 12.5 μg·ml^−, 25 μg·ml^−1, 50 μg·ml^−1, 100 μg·ml^−1.
On 96-orifice culture plate, the pilot aperture plus K562 tumor cells 0.1 ml and rLZ-8 0.1 ml, rLZ-8 concentrations from low to high; negative control group plus K562 tumor cells and culture medium of the 0.1 ml respectively; positive drug control group arsenic trioxide As2O3; make six-aperture multipunches for each group. Placing in 37° C., 5% CO2 incubator 48 h, adding MTT15 μl (5 mg ml^−1) prior to the termination of 4 h, after the termination of cell culture by adding 100 μl 0.1 mol L^−1 hydrochloric acid isopropyl alcohol, testing OD values570nm on the enzyme immunosorbent detector.

[2] = system: Mouse hepatoma cell strain H22; assay: H22 subcutaneous tumor inhibition experiment; assay type: in vivo, Mice; conditions: 10 days
Method: Mice, weight 18-22g, males and females were divided equally, from Jilin University Laboratory Animal Center. Mouse hepatoma cell strain H22, offered by our laboratory. Cyclophosphamide (CTX), offered by Jiangsu Hengrui Medicine Co., Ltd., lot number: 06101921.
H22 hepatoma cells experiment group were divided into normal control group, negative control group, positive control group, rLZ-8 low-dose treatment group (0.25 mg·kg^−1), rLZ-8 medium-dose treatment group (0.5 mg·kg^−1), rLZ-8 high-dose treatment group (1 mg·kg^−1). For each group 10 mice.
H22 subcutaneous tumor tumor inhibition experiment methods: Select well-growing 1-122 cells, dilute appropriately with sterile saline into a tumor cell suspension, cell counts for 10^7·L^−1, under the right armpit of each mouse inoculated subcutaneously 0.2 ml (except for the normal control group). Treatment after 24 h of vaccination. Normal control group and negative control group were given saline 0.2 ml·each^−1·d^−1, intraperitoneal injection; positive control group were given cyclophosphamide 20 mg·kg^−1, 0.2 ml·each^−1·d^−1, intraperitoneal injection. rLZ-8 treatment groups were given doses of tail venous injection respectively, 0.2 ml·each^−1·d^−1, in 10 consecutive days. Draw blood from orbital venous plexus 10 days before and after medication respectively, sent to Jilin University No. 1 Hospital clinical laboratory to test and analyze the number of WBC. Kill all the mice the next day of drug withdrawal at cervical dislocation, dissected anatomically and took out the tumors, weigh tumors, calculated the inhibition rate using the following equation:
Inhibition rate (%)=(average tumore weight of the control group−average tumor weight of the experiment group)/average tumor weight of the control group×100%

WBC = assay: Treatment of radiation leucopenia model of mice, WBC; assay type: in vivo; design: unit not given here; conditions: 7.5 Gy γ-ray
Method: rLZ-8 preparation of sterile saline. Divide them into 5 ∞g·kg^−1, 2.5 μg·kg^−1, 1.25 μg·kg^−1, 0.62 μg·kg^−1 dose groups. 0.2 ml/vial.
Genlei™ Scimax™ [Recombinant human granulocyte colony-stimulating factor injection (rhG-CSF)], production lot: 20060403; 150m/vial is prepared with sterile normal saline into the preparation of 3.2 μg·kg^−1, 0.2 ml/vial.
The mice were irradiated by 7.5 Gy γ-ray (180 mV, 15 mA) and then divided into seven groups (n=10): (A) negative control; (B) 5 μg·kg−1 dose; (C) 2.5 μg·kg−1 dose; (D) 1.25 μg·kg−1 dose; (E) 0.62 μg·kg−1 dose; (F) positive control (Genlei™ Scimax™); (G) model group. Together with modeling, mice in each group were administered with Genlei™ Scimax™ and rLZ-8 for 9 days, drew blood from tail, tested the number of WBC, weight spleen, calculated index of spleen.

[3] = rLZ-8 0.25 mg·kg^−1 tail venous injection
[4] = rLZ-8 0.5 mg·kg^−1 tail venous injection
[5] = rLZ-8 1 mg·kg^−1 tail venous injection

B1: rLZ-8: Recombinant Ganoderma Lucidum Immune Regulatory Protein expressed in Pichia pastoris (protein, UniProt P14945 2-111, looked up)
Immunomodulatory protein Ling …: SDTALIFRLAWDVKKLSFDYTPNWGRGNPNNFIDTVTFPKVLTDKAYTYRVAVSGRNLGVKPSYAVESDGSQKVNFLEYNSGYGIADTNTIQVFVVDPDTNNDFIIAQWN
B1 was tested, and the “lethal effect in vitro on K562 tumor cells (in words)” value ([1]; 3.125-100 μg·ml^−1) was “strong lethal effect”, the “Growth inhibition rate (%)” value ([1]; rLZ-8 3.125 μg ml^−1, 48 h) was 34.7% and the OD570 nm ([1]; rLZ-8 3.125 μg ml^−1, 48 h) was 0.66 ± 0.03. The “Growth inhibition rate (%)” value ([1]; rLZ-8 6.25 μg ml^−1, 48 h) was 42.6%, the OD570 nm ([1]; rLZ-8 6.25 μg ml^−1, 48 h) was 0.58 ± 0.03 and the “Growth inhibition rate (%)” value ([1]; rLZ-8 12.5 μg ml^−1, 48 h) was 48.5%. The OD570 nm ([1]; rLZ-8 12.5 μg ml^−1, 48 h) was 0.52 ± 0.05, the “Growth inhibition rate (%)” value ([1]; rLZ-8 25 μg ml^−1, 48 h) was 69.3% and the OD570 nm ([1]; rLZ-8 25 μg ml^−1, 48 h) was 0.31 ± 0.02. The “Growth inhibition rate (%)” value ([1]; rLZ-8 50 μg ml^−1, 48 h) was 75.2%, the OD570 nm ([1]; rLZ-8 50 μg ml^−1, 48 h) was 0.25 ± 0.04 and the “Growth inhibition rate (%)” value ([1]; rLZ-8 100 μg ml^−1, 48 h) was 81.2%. For the same molecule, the OD570 nm ([1]; rLZ-8 100 μg ml^−1, 48 h) was 0.19 ± 0.03, the “Inhibition rate (%)” value [2, 3] was 16.7% and the “Tumor weight” value [2, 3] was 1.00 ± 0.03 g. The “Inhibition rate (%)” value [2, 4] was 30.0%, the “Tumor weight” value [2, 4] was 0.84 ± 0.02 g and the “Inhibition rate (%)” value [2, 5] was 42.5%. The “Tumor weight” value [2, 5] was 0.69 ± 0.03 g, the “WBC, 5th day” value (WBC; rLZ-8 0.62 μg·kg^−1) was 0.73 ± 0.43 and the “WBC, 7th day” value (WBC; rLZ-8 0.62 μg·kg^−1) was 0.26 ± 0.43. The “WBC, 9th day” value (WBC; rLZ-8 0.62 μg·kg^−1) was 0.64 ± 0.01, the “WBC, 5th day” value (WBC; rLZ-8 1.25 μg·kg^−1) was 0.82 ± 0.45 and the “WBC, 7th day” value (WBC; rLZ-8 1.25 μg·kg^−1) was 0.65 ± 0.45. The “WBC, 9th day” value (WBC; rLZ-8 1.25 μg·kg^−1) was 0.70 ± 0.12, the “WBC, 5th day” value (WBC; rLZ-8 2.50 μg·kg^−1) was 0.69 ± 0.54 and the “WBC, 7th day” value (WBC; rLZ-8 2.50 μg·kg^−1) was 0.56 ± 0.54. The “WBC, 9th day” value (WBC; rLZ-8 2.50 μg·kg^−1) was 0.54 ± 0.13, the “WBC, 5th day” value (WBC; rLZ-8 5 μg·kg^−1) was 0.84 ± 0.32 and the “WBC, 7th day” value (WBC; rLZ-8 5 μg·kg^−1) was 0.31 ± 0.32. For the same molecule, the “WBC, 9th day” value (WBC; rLZ-8 5 μg·kg^−1) was 0.90 ± 0.14.

— patent publication US20110009597A1, “RECOMBINANT GANODERMA LUCIDIUM IMMUNOMODULATORY PROTEIN (rLZ-8) AND USES THEREOF” (priority 2008, published 2011)
